The results in this text go back to patent publication US20240036057A1, “DNA APTAMERS FOR THE DETECTION OF MONOMERIC CRP” (Universiteit Hasselt, published 2024).

Series [1] deals with T1, monomeric C-reactive protein (mCRP) (Homo sapiens, UniProt P02741 P02741:19-224).
T1 sequence: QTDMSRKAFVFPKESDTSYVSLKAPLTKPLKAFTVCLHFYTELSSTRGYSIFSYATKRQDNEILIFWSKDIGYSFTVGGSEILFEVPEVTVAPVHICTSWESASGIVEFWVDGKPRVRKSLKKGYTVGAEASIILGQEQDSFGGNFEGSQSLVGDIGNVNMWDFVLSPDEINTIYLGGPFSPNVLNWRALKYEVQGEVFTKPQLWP
The experiment in a line: SPR; 200 nM aptamer; 75 mM HEPES, 0.15 M NaCl pH 7.4. On the procedure: Regeneration of the CM4 chip flow cells was achieved by applying 10 mM NaOH with 120 sec followed by several washing steps with 1× aptamer binding buffer. SPR binding concentrations were obtained as a resonance unit RU (1 RU=1 pg/mm² of the sensor surface) by calculating the binding units of antibody/aptamer and mCRP and correcting for the background signal observed in the reference channel.

Series [2] addresses T1, monomeric C-reactive protein (mCRP). Nature of the series: SPR; mCRP immobilized on CM4, pCRP reference cell; 1:1 Langmuir; ka 4.242E+03 1/Ms, kd 6.41E-04 1/s; aptamer binding buffer pH 7.4. On the procedure:
On the contrary the aptamer was very stable regeneration steps and therefore a multicycle kinetics analysis was performed for the evaluation of reaction kinetics of the aptamer. Pentameric CRP is immobilized in the reference flow cell and mCRP in the active cell at a low immobilization level (70 RU) to achieve an optimal kinetic analysis on CM4 biosensor chips. The kinetic analysis was performed with increasing concentrations of aptamer AmC2 (0-500 nM) applying for 200 sec of association and 200 sec dissociation at flow rate of 300 μl/min. A regeneration step of 120 sec using 1 M NaOH was applied between the injections of different concentrations. The Biacore evaluation software was used in the analysis for estimation of affinity rate constant by fitting the obtained binding sensogram using standard mathematical 1:1 Langmuir model.
The kinetic parameters of the antibody 3H12 and aptamer AmC2 were evaluated using the inbuilt kinetics modules of the Biacore T200 SPR (FIG. 2). […] The strength of the binding interaction between the ligand and target analyte can be measured based on the affinity constant value KD. […] The binding kinetics of the ligand to the target analyte is a time dependent interaction and in SPR this is measured as the association and dissociation constants (ka and kd). […]
In general terms: SPR reads the build-up and loss of mass on a sensor chip optically.

B1: AmC4 (ssDNA)
DNA: GCACCAGCATATTCGATTGGGAGGTGTGAACGTTATGTGGTAGAGAGATGGGTGGTGGGGCTAGTAGGTGCATCAG
As for B1, the binding result in series [1] is given as “binds”.

B2: AmC3 (ssDNA)
DNA: GCACCAGCATATTCGATTGGGAGCGCGGGGGAGAGTAGTGGGGAACGGTGGAGAGTTGGGCTAGTAGGTGCATCAG
Turning to B2, in series [1], the binding result is “binds”.

B3: AmC2 (ssDNA)
DNA: GCACCAGCATATTCGATTGTGGCGGGTTGTGAAGGGTGGAGTATGGTCGTGTTGGTTGGGCTAGTAGGTGCATCAG
A word on the Kd: it is the concentration at which binding is half-saturated. Lower therefore signals tighter binding. Molecule B3 returned a Kd in series [2] of 151 nM.
